Assay results as given in PMC8149785.

Legend:
human C3b (human) = human C3b (human) (UniProt P01024); experiment: SPR; C3b amine coupled to a C1 chip (233 RU murine, 258 RU human); FH flowed over, two-fold dilution series from 2 uM to 6 nM; BIAcore T200, 25°C, HBSP+ (10 mM HEPES, 150 mM NaCl, 0.05% P20); equilibrium data, 1:1 binding model
mouse C3b (mouse) = mouse C3b (mouse) (UniProt P01027); experiment: as above

Kd (human C3b (human)): 1.6 µM | Kd (mouse C3b (mouse)): 1.2 µM
Substance: recombinant murine factor H (from UniProt P06909 19-1234) (natural protein)
